We go through 5 substances from patent publication US20230279047A1.

Assay [1] deals with human polyclonal IgG (Gammanorm) (human). The assay is described as follows: DBC column, 6 min residence; ligand 9.7 mg/ml on agarose beads.
The target is the same in assay [2]. Described as above. This is another data set of the same source.
Assay [3] has the same target. The assay is described as follows: DBC column, 6 min residence; ligand […] on agarose beads.
Assay [4] has the same target. The assay is described as follows: DBC column, 6 min residence; ligand 7.0 mg/ml on agarose beads.
Another assay has as its target IgG1 monoclonal antibody. Put plainly: SPR (Biacore), ligand amine-coupled on CM5 chip, IgG1 mAb as probe.
In assay [5] the target is human polyclonal IgG (Gammanorm) (human). The assay is described as follows: DBC column, 6 min residence; ligand 7.2 mg/ml on agarose beads.
For assay [6] the target is unchanged. Put plainly: DBC column, 6 min residence; ligand […] on agarose beads. This is another data set of the same source.
Assay [7] has the same target. Put plainly: DBC column, 6 min residence; ligand 10.8 mg/ml on agarose beads.

As for “Zvar(N11K,H18K,S33K,D37E,A42R,N43A,L44I,K50R,L51Y)4 (designed binder)”, the Initial IgG capacity Qb10 in assay [1] was found to be 56.3 mg/mL; in assay [2], 62.1 mg/mL.

“Zvar(Q9A,N11E,N28A,N43A)4 (designed binder)”: the Initial IgG capacity Qb10 was determined as 50 mg/mL in assay [3] and 49.1 mg/mL in assay [4].

For the substance “Zvar(Q9A,N11E,Q40V,A42K,N43A,L44I)1 (designed binder)”, in the assay with IgG1 monoclonal antibody, the Kd (in general, the concentration at which binding is half-saturated) was 1.07 nM; the koff (as a rule, the first-order rate constant of dissociation) worked out at 0.000437 s⁻¹; the kon – broadly, the second-order rate constant of association – turned out to be 410000 M⁻¹ s⁻¹.

Take “Zvar(Q9A,N11E,Q40V,A42K,N43A,L44I)4 (designed binder)”: the Initial IgG capacity Qb10 in assay [3] was 56.3 mg/mL; in assay [5], 49 mg/mL; in assay [6], 60.3 mg/mL.

The substance “Zvar(Q9A,N11K,H18K,D37E,A42R)4 (designed binder)” showed an Initial IgG capacity Qb10 in assay [7] of 56.9 mg/mL.
